Results on one substance are retold here after publication PMC3094209.

Assay [1] has as its target human angiotensin receptor type 2 expressed in P. pastoris (human) (UniProt P50052). Briefly: radioligand binding; membranes from small-scale cultures; radioactive-labelled specific ligand; specific binding in pmol/mg-membrane, mean ± S.D., n = 3.
Assay [2] concerns the target human angiotensin receptor type 2 expressed in Sf9 insect cells (human) (UniProt P50052). The description is as above.

With “Angiotensin (printed as "Angiotenin"), radioactive-labelled agonist (peptide)”, the specific binding activity (pmol/mg-membrane) stood at 3.69 in assay [1] and 1.66 in assay [2].
